The values that follow come from patent US20100291106A1 (Novartis, published 2010).

For test [1], the target named is T1, human complement C3b protein (human, UniProt P01024 23-667; P01024 749-1663). In words: cell-based or functional assay.
The target of test [2] is T2, cynomolgus complement C3b protein (cynomolgus monkey (Macaca fascicularis)). In words: cell-based or functional assay.
The next test addresses T3, human C5 (human, UniProt P01031 19-673; P01031 678-1676).
T3 construct: Captured by an anti-C5 antibody in the ELISA
In words: Direct ELISA at 2 ug/ml C5, 200 nM Fab. In general terms: An ELISA detects its analyte on a solid surface through an enzyme-linked reagent.

Test [3] concerns the target T4, human C3d (human, UniProt P01024 1002-1303).
T4 construct: domain: C3d
In words: cross reactivity, ELISA on C3d, anti-His detection.

Test [4] deals with T1, human complement C3b protein. The experiment in a line: solution equilibrium titration (SET), ECL detection, Fab.
Test [5] addresses T2, cynomolgus complement C3b protein. The test is described as above.
Test [6] has as its target T1, human complement C3b protein. The experiment in a line: SPR (Biacore), C3b captured by anti-C3d antibody, Fab as analyte. (In general: In SPR one partner is held on a chip, and binding of the other changes the refractive index at the surface.)
Test [7] has as its target T2, cynomolgus complement C3b protein. Described as above.
The target in test [8] is T1, human complement C3b protein. The experiment in a line: bead proximity assay, C3b-acceptor beads; competitor biotinylated fH. On the procedure:
(§1) In brief, purified C3b and fP were conjugated to unconjugated acceptor or donor beads (PerkinElmer) using AminoLink Reductant (Pierce) during a 48 h incubation at room temperature. Beads were quenched using Carboxymethoxylamine Hemihydrochloride (Aldrich), and purified by centrifugation at 13000 rpm and three washes with 0.1M TBST. Purified fB(D24G/N260D) and fH were biotinylated during a 30 min incubation with 20-fold molar excess of NHS-Chromogenic-biotin (Pierce) at room temperature, and purified using Zeba 0.5 ml desalting columns (Pierce).
(§2) For C3b-C3b and C3b-fP proximity, Fabs or IgGs respectively were pre-incubated with C3b-Acceptor beads (20 μg/ml) for 60 min at room temperature. C3b-Donor beads or fP-Donor beads (20 μg/ml) were then added, and the plate was incubated overnight at room temperature before reading. For C3b-fB and C3b-fH proximity, antibodies were pre-incubated with C3b-Acceptor beads (20 μg/ml) for 60 minutes at room temperature. Biotinylated fB(D24G/N260D) or fH were then added, and incubated for 60 minutes at room temperature. SA-Donor beads were then added (20 μg/ml) and the plate was incubated overnight at room temperature before reading. Plates were read on the BMG Pherastar (ex=680, em=520-620).

Test [9] shares this target. The experiment in a line: bead proximity assay, C3b-acceptor beads; competitor biotinylated fB(D24G/N260D). As for the experimental part:
as §1, §2

For test [10] the target is unchanged. In words: cell-based or functional assay. The source holds these as a separate data set.
For test [11] the target is unchanged. In words: ELISA, C3b or C3 captured by anti-C3d antibody. On the procedure:
The C3b antibodies were examined to determine whether they were selective for binding to C3b relative to the C3b precursor C3. Briefly, binding selectivity for C3b was determined by performing the following steps. Coat Maxisorp plate Nunc (442404) with anti-C3d rabbit monoclonal (abcam 17453) at 2 μg/ml in Carbonate Buffer at 100 μl/well. Seal plates and incubate at 4° C. overnight. Aspirate plates and wash 3 times with PBS/0.5% Tween 20. Block plates with Diluent (PBS, 4% BSA Fraction V (Fisher ICN16006980), 0.1% Tween 20 (Sigma P1379), 0.1% Triton X-100 (Sigma P234729)) and incubate for 2 h at room temperature or overnight at 4° C. Then wash plates once with PBS/0.5% Tween 20. Dilute purified C3b (complement technologies A114 lot 21) and C3 (complement technologies A113c) at 1 μg/ml in diluent and plate 100 μl per well. Incubate for 1 h at room temperature. Then wash 3 times with PBS/0.5% Tween 20.
Dilute Fabs at 100 nM and subsequent dilutions (or higher concentration) in diluent and plate 100 μl per well. Incubate at room temperature for 1 h. Wash plates 3 times with PBS/0.5% Tween 20. Add 100 μl/well of anti-Histidine-HRP monoclonal detection antibody at 1:400 in diluent and incubate at room temperature for 1 h. Then wash 4 times with PBS/0.5% Tween 20. Add 100 μl of TMB substrate (Pierce 34028) and incubate at room temperature for up to 5 min. Add 50 μl of Stop solution (2N Sulfuric Acid) to each well and read plate at 450 nm and correct for plastic reading at 570 nm.

Test [12] deals with T4, human C3d. The experiment in a line: C3d binding ELISA, IgG titrated from about 0.006 to 100 nM.
The target in test [13] is T1, human complement C3b protein. The experiment in a line: SPR (Biacore T100), C3b captured by anti-C3d antibody, IgG as analyte, 1:1 model.
In test [14] the target is T2, cynomolgus complement C3b protein. Described as above.
Test [15] concerns the target T1, human complement C3b protein. In words: AlphaScreen bead proximity, C3b-Acceptor beads pre-incubated with antibody, then biotinylated fH and SA-Donor beads; blocked ligand: fH [C]. As for the experimental part: as §1, §2
(Bead proximity is the source of the signal in Alpha formats.)

The target is the same in test [16]. The experiment in a line: AlphaScreen bead proximity, C3b-Acceptor beads pre-incubated with antibody, then biotinylated fB(D24G/N260D) and SA-Donor beads; blocked ligand: fB [A]. As for the experimental part:
as §1, §2

For test [17] the target is unchanged. The experiment in a line: AlphaScreen bead proximity, C3b-Acceptor beads pre-incubated with antibody, then C3b-Donor beads; inhibition of C3b-C3b dimer formation; unit from the axis [Antibody] nM [D]. As for the experimental part:
as §1, §2

In general, Kd refers to the free concentration of one partner at which half of the binding sites on the other are occupied at equilibrium, for simple one-to-one binding. A word on the IC50: it is the point on the concentration scale where inhibition reaches its midpoint. A word on the koff: it is a measure of how fast the partners let go of each other. For orientation: kon means a measure of how fast the partners come together. As a reminder, the EC50 is the concentration giving half of the maximal effect.

T1 sequence (P01024 23-667 P314L, chain 1 of 2): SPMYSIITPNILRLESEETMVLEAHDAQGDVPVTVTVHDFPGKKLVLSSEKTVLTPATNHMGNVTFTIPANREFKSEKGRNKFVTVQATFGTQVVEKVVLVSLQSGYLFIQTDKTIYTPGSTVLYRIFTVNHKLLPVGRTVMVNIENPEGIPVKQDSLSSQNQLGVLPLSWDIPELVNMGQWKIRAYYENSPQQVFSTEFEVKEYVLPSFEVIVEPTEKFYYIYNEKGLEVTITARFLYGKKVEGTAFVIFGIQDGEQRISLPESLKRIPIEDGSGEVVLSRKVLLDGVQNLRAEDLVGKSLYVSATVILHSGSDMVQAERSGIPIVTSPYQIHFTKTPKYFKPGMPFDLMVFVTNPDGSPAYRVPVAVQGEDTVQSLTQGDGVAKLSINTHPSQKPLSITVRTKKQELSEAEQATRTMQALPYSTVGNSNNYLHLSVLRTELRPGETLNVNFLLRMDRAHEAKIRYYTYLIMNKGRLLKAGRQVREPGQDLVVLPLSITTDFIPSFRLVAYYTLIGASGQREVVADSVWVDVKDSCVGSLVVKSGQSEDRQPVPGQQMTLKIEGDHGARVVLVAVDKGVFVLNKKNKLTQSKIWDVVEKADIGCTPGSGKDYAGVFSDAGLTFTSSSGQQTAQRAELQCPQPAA
T1 sequence (P01024 749-1663, chain 2 of 2): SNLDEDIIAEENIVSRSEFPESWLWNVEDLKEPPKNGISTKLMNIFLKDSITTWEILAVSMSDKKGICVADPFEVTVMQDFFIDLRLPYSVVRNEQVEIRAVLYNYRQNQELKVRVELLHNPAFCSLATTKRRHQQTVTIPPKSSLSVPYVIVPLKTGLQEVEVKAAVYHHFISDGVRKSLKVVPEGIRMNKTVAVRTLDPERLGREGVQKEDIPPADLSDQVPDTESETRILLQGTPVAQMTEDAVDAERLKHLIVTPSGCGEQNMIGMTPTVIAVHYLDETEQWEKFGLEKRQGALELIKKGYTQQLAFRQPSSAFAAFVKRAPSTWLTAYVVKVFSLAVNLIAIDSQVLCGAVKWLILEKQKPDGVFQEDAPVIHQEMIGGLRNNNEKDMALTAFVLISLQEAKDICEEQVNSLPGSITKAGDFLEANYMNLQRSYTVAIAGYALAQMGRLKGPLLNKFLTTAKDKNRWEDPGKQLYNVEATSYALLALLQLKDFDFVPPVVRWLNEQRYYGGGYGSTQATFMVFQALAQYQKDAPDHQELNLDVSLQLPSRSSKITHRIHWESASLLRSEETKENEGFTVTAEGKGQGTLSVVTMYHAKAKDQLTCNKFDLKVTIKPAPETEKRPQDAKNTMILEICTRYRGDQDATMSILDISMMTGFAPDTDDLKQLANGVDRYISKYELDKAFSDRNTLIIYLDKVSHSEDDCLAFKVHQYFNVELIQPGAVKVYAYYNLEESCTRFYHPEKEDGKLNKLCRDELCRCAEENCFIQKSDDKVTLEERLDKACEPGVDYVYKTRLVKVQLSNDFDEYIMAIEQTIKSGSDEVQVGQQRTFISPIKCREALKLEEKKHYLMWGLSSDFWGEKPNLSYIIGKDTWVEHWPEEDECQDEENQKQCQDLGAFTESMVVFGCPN
T4 sequence (P01024 1002-1303 limits assumed): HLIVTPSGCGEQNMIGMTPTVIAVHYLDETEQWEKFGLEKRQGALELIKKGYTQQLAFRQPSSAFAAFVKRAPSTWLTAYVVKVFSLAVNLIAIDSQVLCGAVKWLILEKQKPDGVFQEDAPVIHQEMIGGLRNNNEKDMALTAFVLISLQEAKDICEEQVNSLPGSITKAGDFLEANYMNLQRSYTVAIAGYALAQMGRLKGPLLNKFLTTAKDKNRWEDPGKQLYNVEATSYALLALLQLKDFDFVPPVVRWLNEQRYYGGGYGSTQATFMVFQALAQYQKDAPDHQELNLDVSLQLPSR
T3 sequence (P01031 19-673 limits assumed, chain 1 of 2): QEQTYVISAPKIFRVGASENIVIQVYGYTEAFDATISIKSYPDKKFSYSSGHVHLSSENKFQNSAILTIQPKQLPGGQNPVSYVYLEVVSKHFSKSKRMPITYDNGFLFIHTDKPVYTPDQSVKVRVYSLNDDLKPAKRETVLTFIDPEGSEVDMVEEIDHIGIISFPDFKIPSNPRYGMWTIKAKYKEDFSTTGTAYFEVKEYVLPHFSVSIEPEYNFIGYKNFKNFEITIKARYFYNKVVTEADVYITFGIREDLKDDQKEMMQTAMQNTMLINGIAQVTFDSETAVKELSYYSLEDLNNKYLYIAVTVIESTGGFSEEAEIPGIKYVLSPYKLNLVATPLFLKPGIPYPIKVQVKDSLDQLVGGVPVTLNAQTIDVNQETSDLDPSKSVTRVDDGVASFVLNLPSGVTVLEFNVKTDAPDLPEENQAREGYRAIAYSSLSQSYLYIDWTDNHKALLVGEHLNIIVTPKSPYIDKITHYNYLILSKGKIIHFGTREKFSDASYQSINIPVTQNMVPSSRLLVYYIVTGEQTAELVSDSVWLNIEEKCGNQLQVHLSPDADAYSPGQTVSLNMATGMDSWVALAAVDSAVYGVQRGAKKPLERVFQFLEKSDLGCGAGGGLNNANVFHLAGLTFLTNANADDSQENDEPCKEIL
T3 sequence (P01031 678-1676 limits assumed, chain 2 of 2): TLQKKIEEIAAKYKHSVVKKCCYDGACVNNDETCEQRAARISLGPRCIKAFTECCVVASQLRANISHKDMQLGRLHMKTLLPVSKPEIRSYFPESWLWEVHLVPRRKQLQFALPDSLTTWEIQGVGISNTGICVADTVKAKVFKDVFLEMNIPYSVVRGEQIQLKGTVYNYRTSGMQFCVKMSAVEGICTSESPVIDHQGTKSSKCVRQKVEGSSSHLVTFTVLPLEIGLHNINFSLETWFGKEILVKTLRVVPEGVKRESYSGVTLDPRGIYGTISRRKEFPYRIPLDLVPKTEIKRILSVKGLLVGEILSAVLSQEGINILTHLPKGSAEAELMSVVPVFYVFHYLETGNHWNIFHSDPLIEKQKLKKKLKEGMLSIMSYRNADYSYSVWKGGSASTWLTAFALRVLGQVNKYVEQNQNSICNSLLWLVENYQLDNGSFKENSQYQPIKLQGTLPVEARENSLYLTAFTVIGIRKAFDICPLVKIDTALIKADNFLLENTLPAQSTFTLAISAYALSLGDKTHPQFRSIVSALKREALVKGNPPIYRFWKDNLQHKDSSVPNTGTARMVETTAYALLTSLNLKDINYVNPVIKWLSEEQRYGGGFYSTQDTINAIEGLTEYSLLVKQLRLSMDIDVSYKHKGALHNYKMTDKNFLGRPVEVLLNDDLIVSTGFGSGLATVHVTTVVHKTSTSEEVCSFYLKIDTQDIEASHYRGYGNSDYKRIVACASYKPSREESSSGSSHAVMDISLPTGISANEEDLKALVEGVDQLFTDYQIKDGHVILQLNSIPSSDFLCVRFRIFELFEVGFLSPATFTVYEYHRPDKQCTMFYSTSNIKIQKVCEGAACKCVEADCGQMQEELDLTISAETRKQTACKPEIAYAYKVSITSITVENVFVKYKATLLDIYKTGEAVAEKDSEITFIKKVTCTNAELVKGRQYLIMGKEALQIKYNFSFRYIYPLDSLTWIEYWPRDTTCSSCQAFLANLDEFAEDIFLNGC

B1: MOR9556 Fab format (Fab, V domains shown)
VH: EVQLVESGGGLVQPGGSLRLSCAASGFTFSSYWMTWVRQAPGKGLEWVSSIKIKPDGYAASVKGRFTISRDNSKNTLYLQMNSLRAEDTAVYYCARLFYQYFARMDYWGQGTLVTVSS
VL: DIQMTQSPSSLSASVGDRVTITCRASQDISNYLNWYQQKPGKAPKLLIYAASNLQSGVPSRFSGSGSGTDFTLTISSLQPEDFATYYCQQYDSYSPTFGQGTKVEIK
In the case of B1, in test [1], the “C3a (nM), human, inhibition of C3a generation” value came to 90 nM; the “C3b Dep (nM), human serum, IC50” value was determined as 24 nM; the “C5a (nM), human, inhibition of C5a generation” value amounted to 17 nM; the “HA (nM), 10% human serum, IC50” value is 62 nM. The “MAC Dep (nM), human serum, IC50” value in test [1] was 4 nM. In test [2], the “C3b Dep (nM), cyno serum, IC50” value was determined as 43 nM; the “HA (nM), 10% cyno serum, IC50” value came out at 99 nM; the “MAC Dep (nM), cyno serum, IC50” value is 18 nM. The binding result with human C5 is on record as “no binding (tested: 200 nM)”. In addition, in the test with human C3d [3], the binding result is given as “no binding”. The molecule also came in with a Kd in test [4] of 0.0015 nM. Moreover, the Kd in test [5] is 0.018 nM. The molecule also showed a Kd in test [6] of 0.0066 nM. Also, in test [7], the Kd was 0.042 nM. Besides, the IC50 in test [8] came to 0.2 nM. Further, the IC50 in [9] turned out to be 0.15 nM.

B2: MOR09611 IgG (antibody, V domains shown)
VH: B1 VH
VL: DIQMTQSPSSLSASVGDRVTITCRASQDISNYLNWYQQKPGKAPKLLIYAASNLQSGVPSRFSGSGSGTDFTLTISSLQPEDFATYYCQQHDTFRPTFGQGTKVEIKR
notes: Germlined human IgG1 with leucines 234 and 235 changed to alanines, kappa; also called antibody 9611
With B2, in test [10], the “MAC deposition on zymosan, IC50” value was at most 5 nM; the “hemolysis of rabbit red blood cells, 10% human or cynomolgus serum, IC50” value is at most 50 nM; the “inhibition of C3a and C5a generation during hemolysis, IC50” value is at most 50 nM. Moreover, the “fold binding selectivity for C3b over C3” value in [11] is above 1000 fold. The binding result with human C3d [12] is recorded as “no binding (tested: 100 nM)”. In test [13], this molecule returned a Kd of 0.000435 nM, a koff of 3.1e-06 s⁻¹ and a kon of 7.13e+06 M⁻¹ s⁻¹. Moreover, in test [14], the Kd was 0.0183 nM, the koff turned out to be 0.000128 s⁻¹ and the kon was 6.97e+06 M⁻¹ s⁻¹. Moreover, the “IC50 (read off the curve)” value in test [15] is around 0.04 nM. The “IC50 (read off the curve)” value in [16] is around 0.05 nM. Also, the EC50 in test [17] came to 605 nM.

B3: MOR9675 Fab format (Fab, V domains shown)
VH: EVQLVQSGAEVKKPGASVKVSCKASGYTFTGYYINWVRQAPGQGLEWMGIISPNQGTTGYAQKFQGRVTMTRDTSISTAYMELSSLRSEDTAVYYCARGNYDHLDYWGQGTLVTVSS
VL: DIQMTQSPSSLSASVGDRVTITCRASQGISNYLNWYQQKPGKAPKLLIYDASTLQSGVPSRFSGSGSGTDFTLTISSLQPEDFATYYCQQDWHTLPVTFGQGTKVEIK
Regarding B3, in test [1], the “C3a (nM), human, inhibition of C3a generation” value amounted to 97 nM; the “C3b Dep (nM), human serum, IC50” value was 11 nM; the “C5a (nM), human, inhibition of C5a generation” value came to 36 nM; the “HA (nM), 10% human serum, IC50” value was 60 nM. The “MAC Dep (nM), human serum, IC50” value in test [1] stood at 3 nM. In test [2], the “C3b Dep (nM), cyno serum, IC50” value was 43 nM; the “HA (nM), 10% cyno serum, IC50” value is 92 nM; the “MAC Dep (nM), cyno serum, IC50” value worked out at 14 nM. The binding result in the test with human C5 was “no binding (tested: 200 nM)”. Further, in the test with human C3d [3], the binding result is reported as “no binding”. Further, in test [4], binding was characterised by a dissociation constant (Kd) of 0.052 nM. In test [5], this molecule showed a Kd of 0.241 nM. For the same molecule, the Kd in test [6] stood at 0.121 nM. The molecule also displayed a Kd in test [7] of 0.562 nM. In test [8], this molecule displayed an IC50 of 0.2 nM. The 50% inhibitory concentration (IC50) in test [9] stood at 1 nM.
